Molecular target: spike protein of SARS-CoV-2 clinical isolate HH01 (Wuhan-like), on live virus (SARS-CoV-2 (Wuhan-like HH01)) (UniProt P0DTC2)
Test: cell-based or functional assay

Substance | IC50, inhibition of SARS-CoV-2 HH01 replication on Calu-3 cells | IC90, inhibition of SARS-CoV-2 HH01 replication on Calu-3 cells [mg/L]
recombinant minibinder LCB1 with N- and C-terminal Ser/Gly extensions and C-terminal Cys (designed binder) | 0.01 to 0.1 µM | 
virus-binding conjugate P: PLGA-PEG-Mal / PLGA (1:1) particle loaded with LCB1 | 4.86 mg/L | 4.99
virus-binding conjugate S: PLGA-only particle incubated with LCB1 (control, adsorbed minibinder) | 1 to 10 mg/L | 

— patent EP4556028A1
